Among the data in PMC6445123 (Scientific Reports, 2019) are Km and kcat values, retold here.

In general, Km refers to the substrate concentration at which the rate is half of its maximum. A word on the kcat: it is the maximal rate divided by the concentration of active sites.

Numbering of substitutions follows the chain as printed. Names and notes keep the numbering of the source.

A short description of this data set: Ac-VEID-AFC hydrolysis kinetics of recombinant Casp6 variants (Michaelis-Menten). The format is biochemical, human. The settings on record: Ac-VEID-AFC hydrolysis, mean ± SD. The text has this:
In this study, we investigated how naturally occurring rare missense variants of human CASP6 affect Casp6 activity and structure. […] A34, E35, A109, and T182 are not conserved in 12 human caspases and in Casp6 from different species (Fig. 1a,b). Recombinant Casp6-WT and the four variants were expressed in E. coli, purified, and active site titrated (Fig. S2) for functional analyses. Like Casp6-WT, Casp6 variants, underwent complete self-processing at TETD23, and TEVD193 sites, and slight self-cleavage at the DVVD179 site, generating mainly large subunit with a linker (LS-L), small subunit (SS), and a minor amount of large subunit (LS) (Fig. 1c,d).
Casp6 active sites were quantified using zVAD-FMK (N-benzyloxycarbonyl-Val-Ala-Asp-(O-methyl)-fluoromethylketone, MP Biomedicals, Santa Ana, CA, USA)[51],[64]. Casp6 activity was measured in Stennicke’s buffer (SB: 20 mM piperazine-N,N′-bis-(2-ethanesulfonic acid) pH 7.2, 100 mM NaCl, 10 mM DTT, 1 mM EDTA, 0.1% 3-[(3-cholamidopropyl)-dimethylammonio]-2-hydroxy-1-propanesulfonic acid, 10% sucrose)[65] using 40 µM Ac-VEID-AFC (Ac-Val-Glu-Ile-Asp-7-Amino-4-trifluoromethylcoumarin, Enzo Life Sciences, Farmingdale, NY, USA)[64] and 10-250 nM active site titrated Casp6. Reactions were initiated by Ac-VEID-AFC addition and followed for 20 min at 37 °C in a black clear bottom 96-well microplate (Costar, Corning, NY, USA) in Synergy H4 Hybrid instrument (BioTek, Winooski, VT, USA) with excitation/emission at 380/505 nm. Released AFC was calculated from AFC standard curve (0-25 µM). Casp6 VEIDase activity (released pmol AFC/min) was calculated from the initial linear reaction part. Ac-VEID-AFC hydrolysis initial velocities were measured with 10 nM active-site titrated Casp6 and […] Ac-VEID-AFC. Initial velocities v versus substrate concentration [S] were fit to a rectangular hyperbola using Michaelis-Menten equation in GraphPad Prism 5 (GraphPad Software, La Jolla, CA, USA).

B1: Casp6-T182S: recombinant rare natural human Casp6 missense variant T182S (protein, UniProt P55212 1-293, looked up, variant T182S)
chain: MSSASGLRRGHPAGGEENMTETDAFYKREMFDPAEKYKMDHRRRGIALIFNHERFFWHLTLPERRGTCADRDNLTRRFSDLGFEVKCFNDLKAEELLLKIHEVSTVSHADADCFVCVFLSHGEGNHIYAYDAKIEIQTLTGLFKGDKCHSLVGKPKIFIIQACRGNQHDVPVIPLDVVDNQSEKLDTNITEVDAASVYTLPAGADFLMCYSVAEGYYSHRETVNGSWYIQDLCEMLGKYGSSLEFTELLTLVNRKVSQRRVDFCKDPSAIGKKQVPCFASMLTKKLHFFPKSN
Consider B1, for which the Km amounted to 33.3 ± 1.2 µM and the turnover number (kcat) came out at 2.42 ± 0.12 s⁻¹.

B2: Casp6-K284A: Casp6 K284A alanine mutant from full-length construct, partially self-processed (protein, UniProt P55212 1-293, looked up, variant K284A)
chain: B1 chain with S182T, K284A
modifications: full-length
notes: Casp6 K284A alanine mutant from full-length construct, partially self-processed
B2: the Km stood at 32.6 ± 10.8 µM and the kcat was found to be 2.0 ± 1.5 s⁻¹.
